How the values were obtained:
[1] = target: T1, Biotinylated human CD3e&d protein (Acro Biosystems, CDD-H82W6) (human, UniProt P07766 23-126; P04234 22-105, biotinylated protein; chain and site not stated); test: BLI (Octet RED96e), biotinylated antigen on SA biosensors, antibody 1.5-24 nM
T1 construct: Bought protein loaded on SA Octet biosensors; also called human CD3 protein
Method: (§1) To determine the binding affinities of anti-CD3 antibodies to human or cynomolgus monkey CD3e&d heterodimer proteins, bio-layer interferometry (BLI) assays were carried out by using Octet® RED96e.
(§2) Biotinylated human CD3e&d protein (Acro Biosystems, CDD-H82W6) or biotinylated cynomolgus CD3e&d protein (Acro Biosystems, CDD-C82W6) was first loaded onto the surface of SA Octet biosensors (Sartorius, 18-5019) to reach capture levels between 0.5-0.8 nm. The loaded biosensors were then dipped in wells containing 2-fold serial dilutions of testing antibodies to detect association signals, followed by dissociation steps in wells containing kinetic buffer. The association phase was 180 seconds, and the dissociation phase was 900 seconds. The sensorgrams were recorded, and the reference signals were subtracted before curve fitting using ForteBio Data Analysis 11.0 software. Association rates (kon) and dissociation rates (koff) were calculated using a simple one-to-one Langmuir binding model. The equilibrium dissociation constant (KD) was calculated as the ratio of koff/kon.

[2] = target: T2, Biotinylated cynomolgus CD3e&d protein (Acro Biosystems, CDD-C82W6) (cynomolgus, UniProt Q95LI5 22-117; Q95LI8 22-105, biotinylated protein; chain and site not stated); test: as above
T2 construct: Bought protein loaded on SA Octet biosensors
Method: as §1, §2

[3] = target: T3, hCD3d-his, Human CD3 delta Protein with His Tag (Acro Biosystems, CDD-H5224) (Human, UniProt P04234 22-105); test: ELISA, plate coated with human CD3d-his at 1 µg/mL, anti-human IgG Fc-HRP [F]
T3 construct: Bought protein; also called monomeric CD3D; not shown: His Tag
Method: (§3) ELISA assays were conducted as briefly described: CD3 proteins were coated onto ELISA plates at 1 μg/mL; testing antibodies OKT3 and PR006364 (A1-HCAb) were diluted from 2 μg/mL to 8 different concentrations by 3-fold serial dilution, or testing antibodies PR006370 (SP34) and PR010991 (3G11-HCAb) were diluted from 100 nM to 11 different concentrations by 2-fold serial dilution; secondary antibody (anti-human IgG Fc-HRP) was used to detect PR006364, PR006370 and PR010991, and secondary antibody (anti-mouse IgG Fc-HRP) was used to detect OKT3 binding signal. The absorption signal at 450 nm (OD450) was recorded by plate reader (Molecular Devices, SpectraMax), and the data were processed and non-linear curve fitting analyzed by GraphPad Prism 8.

[4] = target: T4, hCD3e-his, Human CD3 epsilon Protein with His Tag (Acro Biosystems, CDE-H5223) (Human, UniProt P07766 23-126); test: ELISA, plate coated with human CD3e-his at 1 µg/mL, anti-human IgG Fc-HRP [E]
T4 construct: Bought protein; also called human CD3E monomeric protein; monomeric CD3E; not shown: His Tag
Method: as §3

[5] = target: T5, cynoCD3e&d-his, Cynomolgus CD3 epsilon & CD3 delta Heterodimer Protein (Acro Biosystems, CDD-C52W4) (Cynomolgus, UniProt Q95LI5 22-117; Q95LI8 22-105); test: ELISA, plate coated with cyno CD3e&d-his at 1 µg/mL, anti-human IgG Fc-HRP [C]
T5 construct: Bought protein; also called cynomolgus CD3E&D heterodimer protein; not shown: His Tag fused to C-terminus of CD3 epsilon chain; Flag Tag fused to C-terminus of CD3 delta chain
Method: as §3

[6] = target: T6, hCD3e&d-his, Human CD3 epsilon & CD3 delta Heterodimer Protein with His Tag (Acro Biosystems, CDD-H52W1) (Human, UniProt P07766 23-126; P04234 22-105); test: ELISA, plate coated with human CD3e&d-his at 1 µg/mL, anti-human IgG Fc-HRP [B]
T6 construct: Bought protein; also called human CD3E&D heterodimer protein; not shown: His Tag fused to C-terminus of CD3 epsilon chain
Method: as §3

[7] = target: T7, hCD3e&g-his, Human CD3 epsilon & CD3 gamma Heterodimer Protein with His Tag (Acro Biosystems, CDG-H52W5) (Human, UniProt P07766 23-126; P09693 23-116); test: ELISA, plate coated with human CD3e&g-his at 1 µg/mL, anti-human IgG Fc-HRP [D]
T7 construct: Bought protein; also called human CD3E&G heterodimer protein; not shown: His Tag fused to C-terminus of CD3 epsilon chain
Method: as §3

[8] = target: T2, Biotinylated cynomolgus CD3e&d protein …; test: BLI (Octet RED96e), biotinylated antigen on SA biosensors
Method: as §1, §2

[9] = target: T8, CD3 on T cells in cynomolgus monkey PBMCs (cynomolgus monkey, UniProt Q95LI5 22-198; Q95LI8 22-171; Q95LI7 23-181); test: FACS on cynomolgus monkey PBMCs, 2-fold serial dilution from 200 nM [A]
T8 construct: whole, on cells
Method: (§4) The cross reactivity to cynomolgus monkey for 3G11-HCAb (PR010991) and derived B7H4xCD3 PR008551 was evaluated by assays of binding activity to cynomolgus monkey PBMCs by FACS method and T cell mediated cytotoxicity with cynomolgus monkey PBMCs by RTCA method. In this example, Anti-CD3/TCR HCAb PR006361 derived from patent WO2016180982A1 and its derived B7H4xCD3 PR006001 were used as control antibodies. These antibodies are generated as described in Example 8.
(§5) Cynomolgus monkey PBMCs were isolated from 10 mL fresh cynomolgus monkey blood using Ficoll Paque Plus (Cytiva 17-1440-02) following the vendor's instructions. The recombinant antibodies were diluted from 200 nM to 11 different concentrations by 2-fold serial dilution. The diluted samples were incubated with cynomolgus monkey PBMCs for 1 hour, and then the secondary antibody (Alexa Fluor®488 AffinityPure Goat Anti-Human IgG (Fcγ Fragment Specific), Jackson ImmunoResearch, 109-545-098) was added and incubated for 1 hour. The cells were washed twice with staining buffer and subjected to flow cytometry. The data were processed by FlowJo v10 (FlowJo, LLC) and non-linear curve fitting analyzed by GraphPad Prism 8.

[10] = target: T8, CD3 on T cells in cynomolgus monkey …; test: FACS on cynomolgus monkey PBMCs, 2-fold serial dilution from 200 nM [B]
Method: as §4, §5

T2 sequence (Q95LI5 22-117, chain 1 of 2): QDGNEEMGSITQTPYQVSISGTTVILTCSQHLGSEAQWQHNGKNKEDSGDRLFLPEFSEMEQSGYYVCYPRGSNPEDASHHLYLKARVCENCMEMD
T2 sequence (Q95LI8 22-105, chain 2 of 2): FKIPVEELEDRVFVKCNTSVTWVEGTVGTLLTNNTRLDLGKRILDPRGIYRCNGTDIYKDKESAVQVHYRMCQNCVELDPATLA
T8 sequence (Q95LI5 22-198, chain 1 of 3): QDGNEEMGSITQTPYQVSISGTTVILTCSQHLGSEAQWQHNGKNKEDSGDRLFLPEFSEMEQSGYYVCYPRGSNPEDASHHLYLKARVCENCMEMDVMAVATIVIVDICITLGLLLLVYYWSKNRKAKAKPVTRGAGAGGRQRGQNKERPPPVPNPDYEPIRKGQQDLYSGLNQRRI
T8 sequence (Q95LI8 22-171, chain 2 of 3): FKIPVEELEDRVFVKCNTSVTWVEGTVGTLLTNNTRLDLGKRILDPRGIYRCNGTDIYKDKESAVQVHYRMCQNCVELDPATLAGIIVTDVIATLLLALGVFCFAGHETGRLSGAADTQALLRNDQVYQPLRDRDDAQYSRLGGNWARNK
T8 sequence (Q95LI7 23-181, chain 3 of 3): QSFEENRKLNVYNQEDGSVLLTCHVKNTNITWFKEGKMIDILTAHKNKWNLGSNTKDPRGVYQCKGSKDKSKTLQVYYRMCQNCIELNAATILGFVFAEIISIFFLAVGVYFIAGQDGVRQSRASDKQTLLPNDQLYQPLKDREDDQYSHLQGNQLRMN
T7 sequence (P09693 23-116, one chain of several): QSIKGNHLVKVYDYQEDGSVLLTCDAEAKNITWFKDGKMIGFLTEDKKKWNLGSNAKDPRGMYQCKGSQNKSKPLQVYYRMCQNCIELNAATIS
T5 sequence (Q95LI5 22-117, stated change not applied, chain 1 of 2): as the sequence (Q95LI5 22-117, chain 1 of 2) above
T5 sequence (Q95LI8 22-105, stated change not applied, chain 2 of 2): as the sequence (Q95LI8 22-105, chain 2 of 2) above

B1: PR010991, anti-CD3 3G11-HCAb hIgG1(C220S, AAA) (antibody, V domains shown)
VH: RVHLAESGGGLVQAGGSLRLSCAASGSRLNDNAMAWFRQAPGKEREFVGSIFWTGGNTYYADAVKGRLTISRDNAKNALYLQMNSLKPEDTAVYYCAASRVVWYYCSGYGCSRAGDYVYWGQGTQVTVSS
notes: Heavy-chain-only antibody, human IgG1 Fc (C220S, L234A, L235A, G237A)
- Kd [1]: < 0.001 nM
- koff [1]: < 1e-07 s⁻¹
- kon [1]: 906000 M⁻¹ s⁻¹
- Kd [2]: < 0.001 nM
- koff [2]: < 1e-07 s⁻¹
- kon [2]: 708000 M⁻¹ s⁻¹
- binding result [3]: no binding (tested: 100 nM)
- binding result [4]: no binding (tested: 100 nM)
- EC50 (read off the curve) [5]: ~2 nM
- EC50 (read off the curve) [6]: ~0.9 nM
- binding result [7]: no binding (tested: 100 nM)

B2: PR006361, anti-CD3/TCR HCAb hIgG1(AAG) from WO2016180982A1 (antibody, V domains shown)
VH: EVQLVESGGGPVQAGGSLRLSCAASGRTYRGYSMGWFRQAPGKEREFVAAIVWSGGNTYYEDSVKGRFTISRDNAKNTMYLQMTSLKPEDSATYYCAAKIRPYIFKIAGQYDYWGQGTQVTVSS
notes: Control heavy-chain-only antibody from prior art; C220S and AAG mutations
- binding result [8]: no binding (tested: 12.5-200 nM)
- binding result [9]: no binding (tested: 200 nM)

B3: PR006001, anti-B7H4xCD3 VH(PR006361)-Fc-scFv(PR003366), hIgG1(dCH1, KiH, LALA) (bispecific antibody)
chain 1: not shown
chain 2: EIVMTQSPASLSVSPGERATLSCRASQSVSSNLAWYQQKPGQAPRLLIYGASTRATGIPARVSGGGSGTEFTLTISSLQSEDFAVYYCQQYKNWPFTFGPGTKLEIKGGGGSGGGGSGGGGSGGGGSQVQLVQSGAEVKKPGSSMRVSCKASEDTFSSYAISWVRQAPGQGLEWMGGTAPIFGTTNYAQKFQGRVTITADKSTSTAYMELSSLRSEDTAVYYCARGGPYFDYWGQGTLVTVSSASEPKSSDKTHTCPPCPAPEAAGGPSVFLFPPKPKDTLMISRTPEVTCVVVDVSHEDPEVKFNWYVDGVEVHNAKTKPREEQYNSTYRVVSVLTVLHQDWLNGKEYKCKVSNKALPAPIEKTISKAKGQPREPQVCTLPPSREEMTKNQVSLSCAVKGFYPSDIAVEWESNGQPENNYKTTPPVLDSDGSFFLVSKLTVDKSRWQQGNVFSCSVMHEALHNHYTQKSLSLSPGK
notes: Control bispecific; anti-CD3 VH-Fc chain and anti-B7H4 scFv-Fc chain
- binding result [10]: no binding (tested: 200 nM)

From patent publication US20260125468A1 (NONA BIOSCIENCES SUZHOU, published 2026)
